The record followed here is a protein production outcome set (Wang et al. 2014).

The data set is described as follows: label from the status in PepcDB records.
Turning to “MSLNVQTVAVIGSGTMGAGIAEVAASHGHQVLLYDISAEALTRAIDGIHARLNSRVTRGKLTAETCERTLKRLIPVTDIHALAAADLVIEAASERLEVKKALFAQLAEVCPPQTLLTTNTSSISITAIAAEIKNPERVAGLHFFNPAPVMKLVEVVSGLATAAEVVEQLCELTLSWGKQPVRCHSTPGFIVNRVARPYYSEAWRALEEQVAAPEVIDAALRDGAGFPMGPLELTDLIGQDVNFAVTCSVFNAFWQERRFLPSLVQQELVIGGRLGKKSGLGVYDWRAEREAVVGLEAVSDSFSPMKVEKKSDGVTEIDDVLLIETQGETAQALAIRLARPVVVIDKMAGKVVTIAAAAVNPDSATRKAIYYLQQQGKTVLQIADYPGMLIWRTVAMIINEALDALQKGVASEQDIDTAMRLGVNYPYGPLAWGAQLGWQRILRLLENLQHHYGEERYRPCSLLRQRALLESGYESEGHHHHHH”, the protein production entry was “not failed”.
The entry for “MSLPGLSAAADQTIKIGAQSMSESEIIASMLGQLIEHHTDLKTTTIKNLGSNAVQQQALMNGEIDIAATRYTGDALTGTLRMEPEKDPDKALALTQREFKKRYDLKWYDSYGFDNTYAFTVSKELADQYHLETVSDVKKWAPQLKLGVDNYWMKLKGNGYQDFTKTYGMTFGGTYPMQIGLVYDAVKSGKMDIVLAYSTDGRIKSYGLKMLKDDKQFFPPYDCSPVVPEKVLKEHPELEGIIKKMLGKIDTATMQELNYEVDGNLKEPSVVAKEYLEKHRYFESLEHHHHHH” is “not failed”.
The entry for “MSLPTEMHHNLGAEKRSAVATTIDSFKERSQKVRALSDPNVRFVPFFGSSEWLRFDGAHPAVLAEKYNRSYRPYLLGQGGAASLNQYFGMQQMLPQLENKQVVYVISPQWFSKNGYDPAAFQQYFNGDQLTSFLKHQSGDQASQYAATRLLQQFPNVAMKDLVQKLASKEELSTADNEMIELLARFNERQASFFGQFSVRGYVNYDKHVAKYLKILPDQFSYQAIEDVVKADAEKNTSNNEMGMENYFYNEQIKKDLKKLKDSQKSFTYLKSPEYNDLQLVLTQFSKSKVNPIFIIPPVNKKWMDYAGLREDMYQQTVQKIRYQLESQGFTNIADFSKDGGEPFFMKDTIHLGWLGWLAFDKAVDPFLSNPTPAPTYHLNERFFSKDWATYDGDVKEFQEGHHHHHH” is “not failed”.
Regarding “MSLQENISVTDSYSTGNAAQAMLEKLLQIYDVKMLVAQLNGVGENHWSAAILKRALANDSAWHRLSEKEFAHLQTLLPKPPEHHPHYAFRFIDLFAGIGGIRRGFESIGGQCVFTSEWNKHAVRTYKANHYCDPATHHFNEDIRDITLSHQEGVSDEAAAEHIRQHIPEHDVLLAGFPCQPFSLAGVSKKNSLGRAHGFACDTQGTLFFDVVRIIDARRPAMFVLENVKNLKSHDKGKTFRIIMQTLDELGYDVADAEDNGPDDPKIIDGKHFLPQHRERIVLVGFRRDLNLKADFTLRDISECFPAQRVTLAQLLDPMVEAKYILTPVLWKYLYRYAKKHQARGNGFGYGMVYPNNPQSVTRTLSARYYKDGAEILIDRGWDMATGEKDFDDPLNQQHRPRRLTPRECARLMGFEAPGEAKFRIPVSDTQAYRQFGNSVVVPVFAAVAKLLEPKIKQAVALRQQEAQHGRRSREGHHHHHH”, the protein production entry is “not failed”.
The entry for “MSLQTLLFSFQGRIGRQAFWLWNICYYAMIAGFAMGSNLLFPDVAHLILPVFLLVVLVPDLAITAKRWHDRDKSSWWLLLNVPLVIGRMTIPAGELAVNTQPGMLETLISFVALLCGAWILVECGFLSGTDGSNRFGAEPKWIKKS” is “failed”.
The entry for “MSLQTRKQREDAKREAWKKERQEKKALEAQQDSVSYVQAINALKNGSFVLEADNVVFRNGIMRFVSSNTNYVEVNDGQGIIQTAFTNFVYNWSPNGLGGVTVQGNVNGISMRQDKDGNVYYNYGINGIAVSATVSIVLTGGTNQASVTINPNFSGNTLTMNGYLVPYNEGHHHHHH” is “not failed”.
The entry for “MSLRAELNQGLIDFLKASPTPFHATASLARRLEAAGYRRLDERDAWHTETGGRYYVTRNDSSLIAIRLGRRSPLESGFRLVGAHTDSPCLRVKPNPEIARNGFLQLGVEVYGGALFAPWFDRDLSLAGRVTFRANGKLESRLVDFRKAIAVIPNLAIHLNRAANEGWPINAQNELPPIIAQLAPGEAADFRLLLDEQLLREHGITADVVLDYELSFYDTQSAAVVGLNDEFIAGARLDNLLSCHAGLEALLNAEGDENCILVCTDHEEVGSCSHCGADGPFLEQVLRRLLPEGDAFSRAIQRSLLVSADNAHGVHPNYADRHDANHGPALNGGPVIKINSNQRYATNSETAGFFRHLCQDSEVPVQSFVTRSDMGCGSTIGPITASQVGVRTVDIGLPTFAMHSIRELAGSHDLAHLVKVLGAFYASSELEGHHHHHH” is “not failed”; for “MSLRILIVDDEKLTRDGLIANINWKALSFDQIDQADDGINAIQIALKHPPNVLLTDVRMPRMDGIELVDNILKLYPDCSVIFMSGYSDKEYLKAAIKFRAIRYVEKPIDPSEIMDALKQSIQTVLQHQAQQDSEGHHHHHH” it is “not failed”; for “MSLRPQTSFIFDLDGTLTDSVYQNVAAWKEALDAENIPLAMWRIHRKIGMSGGLMLKSLSRETGMSITDEQAERLSEKHAQAYERLQHQIIALPGAVELLETLDKENLKWCIATSGGIDTATINLKALKLDINKINIVTRDDVSYGKPDPDLFLAAAKKIGAPIDECLVIGDAIWDMLAARRCKATGVGLLSGGYDIGELERAGALRVYEDPLDLLNHLDEIASREGHHHHHH” it is “not failed”.
In the case of “MSLSAQADARPTPAPSFSGVTVDGKPFSSASLKGKAYIVNFFATWCPPCRSEIPDMVQVQKTWASRGFTFVGIAVNEQLPNVKNYMKTQGIIYPVMMATPELIRAFNGYIDGGITGIPTSFVIDASGNVSGVIVGPRSKADFDRIVKMALGAKAATKEGHHHHHH”, the protein production result is given as “not failed”.
On to “MSLSDAVNKHPKSPNPQLCAVTLLGNLVATPDIRYRANPATAVTEIVLATSSKWLDKITNKYKEWTSYHHVKVEGELVELALLNANKGDIILLHGYLSNIKPKSTDKSTNHLGIVHANFVQKFEKGYTQAINQIHCSAQLTSKPKLMLTEQNKNITQANIVINQHIYNTDKQAWQTISVERAIHVWGKQAQYLAEHGDIGDELMLEGKLSYTSGVSKDQFIEVKNVHLFKGTLEHHHHHH”, for which the protein production result was “not failed”.
Then “MSLSDLLYEIQDKVGLLTMNRISKHNAFDNQLLTEMRIRLDSAINDTNVRVIVLKANGKHFSAGADLTWMQSMANFTEEENLEDSLVLGNLMYSISQSPKPTIAMVQGAAFGGGAGLAAACDIAIASTSARFCFSEVKLGLIPAVISPYVVRAIGERAAKMLFMSAEVFDATRAYSLNLVQHCVPDDTLLEFTLKYASQISNNAPEAVKNSKQLAQYVANKKIDEELVRYTASLIAHKRVSDEGQEGLKAFLNKEIPNWNEGHHHHHH”, with “not failed”; and “MSLSGALKENSGKPSEVEYTHFKDLQALEMERGRLYETIVVTWDDSMVGNAAPIGVLCTGDDTVTLYLYQGTRTVENVLNNGRFTVNVTLDPLIFTDSTLGDLEEDMFSHYRDFLHLRGADAFFTAEVVSVKKLVKRDRFGESELHVVKARAGDVMRAESFRMALNRGIYAVIESLIAYTRAEFSDPLVLRERIAEMNRVARKVGGPREKEAMRRIIQALESKISEGHHHHHH”, with “not failed”.
With “MSLSKILIAGCGDLGLELARRLTAQGHEVTGLRRSAQPMPAGVQTLIADVTRPDTLASIVHLRPEILVYCVAASEYSDEHYRLSYVEGLRNTLSALEGAPLQHVFFVSSTGVYGQEVEEWLDEDTPPIAKDFSGKRMLEAEALLAAYSSTILRFSGIYGPGRLRMIRQAQTPEQWPARNAWTNRIHRDDGAAFIAYLIQQRSHAVPERLYIVTDNQPLPVHDLLRWLADRQGIAYPAGATPPVQGNKKLSNARLLASGYQLIYPDYVSGYGALLAAMREGHHHHHH”, the protein production entry is given as “not failed”.
For “MSLSKKIAVIGECMIELSEKGADVKRGFGGDTLNTSVYIARQVDPAALTVHYVTALGTDSFSQQMLDAWHGENVDTSLTQRMENRLPGLYYIETDSTGERTFYYWRNEAAAKFWLASEQSAAICEELANFDYLYLSGISLAILSPTSREKLLSLLRECRAKGGKVIFDNNYRPRLWASKEETQQVYQQMLECTDIAFLTLDDEDALWGQQPVEDVIARTHNAGVKEVVVKRGADSCLVSIAGEALVDVPAVKLPKEKVIDTTAAGDSFSAGYLAVRLTGGSAENAAKRGHLTASTVIQYRGAIIPREAMPAEGHHHHHH”, the protein production entry is “not failed”.
Take “MSLSLIKVGLVGIGAQMQENLLPSLLQMQDIRIVAACDSDLERARRVHRFISDIPVLDNVPAMLNQVPLDAVVMAGPPQLHFEMGLLAMSKGVNVFVEKPPCATLEELETLIDAARRSDVVSGVGMNFKFARPVRQLREMTQVDEFGETLHIQLNHYANKPRAPLWGLDSTLRSFLLAQAIHTIDLAITFGDGELRRVQSSVQRHDDALIVRADMAFSSGATASLLAGTSFPYFEFDMKLVSSSSTLVELDNLWNITLHEPEHATRPTGAAKRWRGAWQPGPLDSGYERSGYHGELHQFFQAIREHRRFEADFASLLPTYRVIEEICSADAVAQGLQNAHSRIRTGIESLSEGHHHHHH”: the protein production entry is “not failed”.
Regarding “MSLSNIETVPASIEMKPNPTITVFERSPDGGRGLARDMPVRWALEEVGRPYHVRRLSFEAMKEASHLAYQPFGQIPSYEQGDLILFESGAIVMHIAQHHSGLLPEDQLRRARTVAWMFAALNTIEPSILNFTTVWLFERNEPWHEARLARTKEQLLKRLDELSAWLGDREWLEGSFSAADILMICVLRRLESSGILKDYGNLLAYVERGKARPAFKRAFDAQLAVFTAASKNEGHHHHHH”, the protein production entry was “not failed”.
Take “MSLSNRAGEILIVEDSPTQAEHLKHILEETGYQTEHVRNGREAVRFLSLTRPDLIISDVLMPEMDGYALCRWLKGQPDLRTIPVILLTILSDPRDVVRSLECGADDFITKPCKDVVLASHVKRLLSGVKRTEERYSRESITLAFGNEGHHHHHH”: the protein production entry is given as “not failed”.
With “MSLSQEMIKKWLDEEGFLRMEVPDENARFHYVVNYPEDHVIDIIQPAGKDDMILIACATSVSPEHQAGIRALSMEKRTEFIWKVRFTLNRFGVDFQLDHPENVLNSYLVTDEIFFDGLSKDRLISSIKNVFRAKLQVMWMIQERFGEERPEHDSMYVEGHHHHHH”, the protein production result is on record as “not failed”.
With “MSLSQRTLLLLSQDNAHYERLLKAAHLPHLRILRADNQSDAEKLIGEAHILMAEPARAKPLLAKANKLSWFQSTYAGVDVLLDARCRRDYQLTNVRGIFGPLMSEYVFGHLLSLMRQLPLYREQQKQRLWQSHPYQGLKGRTLLILGTGSIGQHIAHTGKHFGMKVLGVSRSGRERAGFDQVYQLPALNKMLAQADVIVSVLPATRETHHLFTASRFEHCKPGAILFNVGRGNAINEGDLLTALRTGKLGMAVLDVFEQEPLPADSPLWGQPNLIITPHNSAYSFPDDVAQIFVRNYIRFIDGQPLDGKIDFDKGYEGHHHHHH”, the protein production entry was “not failed”.
Then “MSLSSLLIIFSSSFMALFPVINPLGNGFVVNGFFADLDPSQRKTAIQKLTINFIMIGVGTLLIGHLFLLIFGLAIPVIQLGGGILICKTAIELLGDSNSSDKEGTSQNVDSFKWKSIEQKIFYPITFPISIGPGSISVIFTLMASASVKGKLLHTGINYLVIALVIICMAGILYVFLSQGQRIIQKLGPVGNQIINKLVAFFTFCIGIQISVTGISQIFHLNIL”, with “failed”; and “MSLSVPFEYTPIAQSVLDECEHLDTASLSDALDSLGIDGGLPGIASQVPGTRCVGIAFTVQYQPVDASEGFRGAANYIDQVPSGSVIVSSNSGRHDCTVWGDIMTHFALANGIKGTVIDGVARDIDTVINCNYPLFSRGRFMQSAKNRTQLKAVQVPLVIDGITIQPGDLMVCDGSGCVVVPQQLAAEVVLRARAVEQTERRIIEAISSGSTLEQARMTYRYDQPWLSEAEHGGTQEGHHHHHH”, with “not failed”.
